# Columns and labels:
# GPCRx11 (human) = GPCRx11 (human) (UniProt Q96LB1)
# GPCRx11 = biological target: T1, GPCRx11 (Homo sapiens, UniProt Q96LB1); assay: aequorin-based assay of GPCRx11 activation by angiopeptin; assay type: cell-based
# T1 construct: expressed in transfected cells; host or cells: CHO-K1
# T1 sequence (Q96LB1 1-330): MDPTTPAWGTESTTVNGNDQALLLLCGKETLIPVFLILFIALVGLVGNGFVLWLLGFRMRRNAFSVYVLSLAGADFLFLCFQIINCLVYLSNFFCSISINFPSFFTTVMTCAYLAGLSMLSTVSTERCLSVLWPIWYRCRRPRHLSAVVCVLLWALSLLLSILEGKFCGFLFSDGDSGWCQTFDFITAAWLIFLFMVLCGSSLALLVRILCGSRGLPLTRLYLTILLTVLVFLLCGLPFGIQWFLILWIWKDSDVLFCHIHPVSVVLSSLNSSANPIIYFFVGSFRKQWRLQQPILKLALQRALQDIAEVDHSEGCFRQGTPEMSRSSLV
# Procedure: As used herein, the term “aequorin-based assay” refers to an assay for GPCR activity that measures elevations in intracellular calcium induced by activated GPCRs, wherein intracellular calcium flux is measured by the luminescence of mitochondiral aequorin expressed in the cell.
# The aequorin assay takes advantage of the responsiveness of mitochondrial apoaequorin to intracellular calcium release induced by the activation of GPCRs (Stables et al., 1997, Anal. Biochem. 252:115-126; Detheux et al., 2000, J. Exp. Med., 192 1501-1508; both of which are incorporated herein by reference). Briefly, GPCR-expressing clones are transfected to coexpress mitochondrial apoaequorin and Gα16. Cells are incubated with 5 μM Coelenterazine H (Molecular Probes) for 4 hours at room temperature, washed in DMEM-F12 culture medium and resuspended at a concentration of 0.5×10^6 cells/ml. Cells are then mixed with test agonist, or ligand molecules and light emission by the aequorin is recorded with a luminometer for 30 sec. Results are expressed as Relative Light Units (RLU). Controls include assays using membranes isolated from cells not expressing GPCRs (mock transfected), in order to exclude possible non-specific effects of the candidate compound. […]
EC50 (read off the curve); aequorin luminescence (RLU) in transfected CHO-K1 cells (GPCRx11 (human)),EC50; aequorin luminescence (RLU) in transfected CHO-K1 cells (GPCRx11 (human)),Compound,ligand of the receptor GPCRx11 (GPCRx11; GPCRx11 (SEQ ID NO: 12)),"EC50 (GPCRx11; GPCRx11 polypeptide bound by angiopeptin, transfected CHO-K1 cells (FIG. 16), read-out: EC50 of stimulation of mitochondrial aequorin fluorescence)"
100 nM,159 nM,angiopeptin (peptide),–,–
–,–,CC(C)[C@@H]1NC(=O)[C@H](CCCCN)NC(=O)[C@@H](Cc2c[nH]c3ccccc23)NC(=O)[C@H](Cc2ccc(O)cc2)NC(=O)[C@@H](NC(=O)[C@H](N)Cc2ccc3ccccc3c2)CSSC[C@@H](C(=O)N[C@H](C(N)=O)[C@@H](C)O)NC1=O [angiopeptin],natural ligand,≤ 160 nM
